B1: Nuclear polyadenylated RNA-binding protein NAB2 (Saccharomyces cerevisiae), P32505 (parent)
chain: MSQEQYTENLKVIVAEKLAGIPNFNEDIKYVAEYIVLLIVNGGTVESVVDELASLFDSVSRDTLANVVQTAFFALEALQQGESAENIVSKIRMMNAQSLGQSDIAQQQQQQQQQQQPDIAQQQPQQQPQQQPQQQPQQQPQQQPQQQPQQQPQQQPQLQPLQPQLGTQNAMQTDAPATPSPISAFSGVVNAAAPPQFAPVDNSQRFTQRGGGAVGKNRRGGRGGNRGGRNNNSTRFNPLAKALGMAGESNMNFTPTKKEGRCRLFPHCPLGRSCPHAHPTKVCNEYPNCPKPPGTCEFLHPNEDEELMKEMERTREEFQKRKADLLAAKRKPVQTGIVLCKFGALCSNPSCPFGHPTPANEDAKVIDLMWCDKNLTCDNPECRKAHSSLSKIKEVKPISQKKAAPPPVEKSLEQCKFGTHCTNKRCKYRHARSHIMCREGANCTRIDCLFGHPINEDCRFGVNCKNIYCLFRHPPGRVLPEKKGAAPNSNVPTNERPFALPENAIIENAPPQTSFTHQEQDTEMN
partner: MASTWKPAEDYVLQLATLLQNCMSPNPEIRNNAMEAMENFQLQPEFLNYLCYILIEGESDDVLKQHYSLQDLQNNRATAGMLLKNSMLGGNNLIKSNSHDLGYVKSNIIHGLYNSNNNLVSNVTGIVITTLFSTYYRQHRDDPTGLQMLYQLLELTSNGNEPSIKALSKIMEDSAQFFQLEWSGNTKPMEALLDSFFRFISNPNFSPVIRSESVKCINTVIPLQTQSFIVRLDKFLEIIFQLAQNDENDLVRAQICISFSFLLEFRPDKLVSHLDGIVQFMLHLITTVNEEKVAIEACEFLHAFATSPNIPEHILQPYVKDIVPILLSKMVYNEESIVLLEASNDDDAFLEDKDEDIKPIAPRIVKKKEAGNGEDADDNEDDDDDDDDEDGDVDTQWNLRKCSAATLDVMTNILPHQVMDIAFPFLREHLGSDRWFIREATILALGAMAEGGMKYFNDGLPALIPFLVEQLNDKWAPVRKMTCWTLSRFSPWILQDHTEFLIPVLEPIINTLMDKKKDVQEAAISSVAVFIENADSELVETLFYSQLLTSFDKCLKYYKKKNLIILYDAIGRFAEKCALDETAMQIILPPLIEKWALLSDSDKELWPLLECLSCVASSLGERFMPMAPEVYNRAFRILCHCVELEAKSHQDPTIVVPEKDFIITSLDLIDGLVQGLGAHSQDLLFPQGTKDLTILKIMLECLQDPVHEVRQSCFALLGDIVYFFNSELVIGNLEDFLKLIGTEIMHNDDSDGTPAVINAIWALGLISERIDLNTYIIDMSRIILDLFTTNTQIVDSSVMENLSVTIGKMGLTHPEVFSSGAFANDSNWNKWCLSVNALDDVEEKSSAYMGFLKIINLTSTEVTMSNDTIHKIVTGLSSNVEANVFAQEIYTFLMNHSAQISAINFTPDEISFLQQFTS
B2: Nuclear polyadenylated RNA-binding protein 4 (Saccharomyces cerevisiae), Q99383 (parent)
chain: MSSDEEDFNDIYGDDKPTTTEEVKKEEEQNKAGSGTSQLDQLAALQALSSSLNKLNNPNSNNSSSNNSNQDTSSSKQDGTANDKEGSNEDTKNEKKQESATSANANANASSAGPSGLPWEQLQQTMSQFQQPSSQSPPQQQVTQTKEERSKADLSKESCKMFIGGLNWDTTEDNLREYFGKYGTVTDLKIMKDPATGRSRGFGFLSFEKPSSVDEVVKTQHILDGKVIDPKRAIPRDEQDKTGKIFVGGIGPDVRPKEFEEFFSQWGTIIDAQLMLDKDTGQSRGFGFVTYDSADAVDRVCQNKFIDFKDRKIEIKRAEPRHMQQKSSNNGGNNGGNNMNRRGGNFGNQGDFNQMYQNPMMGGYNPMMNPQAMTDYYQKMQEYYQQMQKQTGMDYTQMYQQQMQQMAMMMPGFAMPPNAMTLNQPQQDSNATQGSPAPSDSDNNKSNDVQTIGNTSNTDSGSPPLNLPNGPKGPSQYNDDHNSGYGYNRDRGDRDRNDRDRDYNHRSGGNHRRNGRGGRGGYNRRNNGYHPYNR
partner: B1 partner

Variants of: B1
Conditions: with imb2_yeast KAP104, P38217

| effect of a mutation on the interaction | Variant |
| --- | --- |
| disrupting interaction | MSQEQYTENLKVIVAEKLAGIPNFNEDIKYVAEYIVLLIVNGGTVESVVDELASLFDSVSRDTLANVVQTAFFALEALQQGESAENIVSKIRMMNAQSLGQSDIAQQQQQQQQQQQPDIAQQQPQQQPQQQPQQQPQQQPQQQPQQQPQQQPQQQPQLQPLQPQLGTQNAMQTDAPATPSPISAFSGVVNAAAPPQFAPVDNSQRFTQRGGGAVGAAAAGGRGGNRGGRNNNSTRFNPLAKALGMAGESNMNFTPTKKEGRCRLFPHCPLGRSCPHAHPTKVCNEYPNCPKPPGTCEFLHPNEDEELMKEMERTREEFQKRKADLLAAKRKPVQTGIVLCKFGALCSNPSCPFGHPTPANEDAKVIDLMWCDKNLTCDNPECRKAHSSLSKIKEVKPISQKKAAPPPVEKSLEQCKFGTHCTNKRCKYRHARSHIMCREGANCTRIDCLFGHPINEDCRFGVNCKNIYCLFRHPPGRVLPEKKGAAPNSNVPTNERPFALPENAIIENAPPQTSFTHQEQDTEMN [K216A;N217A;R218A;R219A] |

Variants of: B2
Conditions: with imb2_yeast KAP104, P38217

| effect of a mutation on the interaction | Variant |
| --- | --- |
| disrupting interaction strength | MSSDEEDFNDIYGDDKPTTTEEVKKEEEQNKAGSGTSQLDQLAALQALSSSLNKLNNPNSNNSSSNNSNQDTSSSKQDGTANDKEGSNEDTKNEKKQESATSANANANASSAGPSGLPWEQLQQTMSQFQQPSSQSPPQQQVTQTKEERSKADLSKESCKMFIGGLNWDTTEDNLREYFGKYGTVTDLKIMKDPATGRSRGFGFLSFEKPSSVDEVVKTQHILDGKVIDPKRAIPRDEQDKTGKIFVGGIGPDVRPKEFEEFFSQWGTIIDAQLMLDKDTGQSRGFGFVTYDSADAVDRVCQNKFIDFKDRKIEIKRAEPRHMQQKSSNNGGNNGGNNMNRRGGNFGNQGDFNQMYQNPMMGGYNPMMNPQAMTDYYQKMQEYYQQMQKQTGMDYTQMYQQQMQQMAMMMPGFAMPPNAMTLNQPQQDSNATQGSPAPSDSDNNKSNDVQTIGNTSNTDSGSPPLNLPNGPKGPSQYNDDHNSGYGYNRDRGDRDRNDRDRDYNHRSGGNHRRNGRGGRGGYNRRNNGYHPMNR [Y532M] |
| disrupting interaction strength | MSSDEEDFNDIYGDDKPTTTEEVKKEEEQNKAGSGTSQLDQLAALQALSSSLNKLNNPNSNNSSSNNSNQDTSSSKQDGTANDKEGSNEDTKNEKKQESATSANANANASSAGPSGLPWEQLQQTMSQFQQPSSQSPPQQQVTQTKEERSKADLSKESCKMFIGGLNWDTTEDNLREYFGKYGTVTDLKIMKDPATGRSRGFGFLSFEKPSSVDEVVKTQHILDGKVIDPKRAIPRDEQDKTGKIFVGGIGPDVRPKEFEEFFSQWGTIIDAQLMLDKDTGQSRGFGFVTYDSADAVDRVCQNKFIDFKDRKIEIKRAEPRHMQQKSSNNGGNNGGNNMNRRGGNFGNQGDFNQMYQNPMMGGYNPMMNPQAMTDYYQKMQEYYQQMQKQTGMDYTQMYQQQMQQMAMMMPGFAMPPNAMTLNQPQQDSNATQGSPAPSDSDNNKSNDVQTIGNTSNTDSGSPPLNLPNGPKGPSQYNDDHNSGYGYNRDRGDRDRNDRDRDYNHRSGGNHRRNGRGGRGGYNRRNNGYHPFNR [Y532F] |
| disrupting interaction strength | MSSDEEDFNDIYGDDKPTTTEEVKKEEEQNKAGSGTSQLDQLAALQALSSSLNKLNNPNSNNSSSNNSNQDTSSSKQDGTANDKEGSNEDTKNEKKQESATSANANANASSAGPSGLPWEQLQQTMSQFQQPSSQSPPQQQVTQTKEERSKADLSKESCKMFIGGLNWDTTEDNLREYFGKYGTVTDLKIMKDPATGRSRGFGFLSFEKPSSVDEVVKTQHILDGKVIDPKRAIPRDEQDKTGKIFVGGIGPDVRPKEFEEFFSQWGTIIDAQLMLDKDTGQSRGFGFVTYDSADAVDRVCQNKFIDFKDRKIEIKRAEPRHMQQKSSNNGGNNGGNNMNRRGGNFGNQGDFNQMYQNPMMGGYNPMMNPQAMTDYYQKMQEYYQQMQKQTGMDYTQMYQQQMQQMAMMMPGFAMPPNAMTLNQPQQDSNATQGSPAPSDSDNNKSNDVQTIGNTSNTDSGSPPLNLPNGPKGPSQYNDDHNSGYGYNRDRGDRDRNDRDRDYNHRSGGNHRRNGRGGRGGYNRRNNGYHPHNR [Y532H] |
| disrupting interaction strength | MSSDEEDFNDIYGDDKPTTTEEVKKEEEQNKAGSGTSQLDQLAALQALSSSLNKLNNPNSNNSSSNNSNQDTSSSKQDGTANDKEGSNEDTKNEKKQESATSANANANASSAGPSGLPWEQLQQTMSQFQQPSSQSPPQQQVTQTKEERSKADLSKESCKMFIGGLNWDTTEDNLREYFGKYGTVTDLKIMKDPATGRSRGFGFLSFEKPSSVDEVVKTQHILDGKVIDPKRAIPRDEQDKTGKIFVGGIGPDVRPKEFEEFFSQWGTIIDAQLMLDKDTGQSRGFGFVTYDSADAVDRVCQNKFIDFKDRKIEIKRAEPRHMQQKSSNNGGNNGGNNMNRRGGNFGNQGDFNQMYQNPMMGGYNPMMNPQAMTDYYQKMQEYYQQMQKQTGMDYTQMYQQQMQQMAMMMPGFAMPPNAMTLNQPQQDSNATQGSPAPSDSDNNKSNDVQTIGNTSNTDSGSPPLNLPNGPKGPSQYNDDHNSGYGYNRDRGDRDRNDRDRDYNHRSGGNHAANGAGGAGGYNRRNNGYHPYNR [R512A;R513A;R516A;R519A] |
| disrupting interaction | MSSDEEDFNDIYGDDKPTTTEEVKKEEEQNKAGSGTSQLDQLAALQALSSSLNKLNNPNSNNSSSNNSNQDTSSSKQDGTANDKEGSNEDTKNEKKQESATSANANANASSAGPSGLPWEQLQQTMSQFQQPSSQSPPQQQVTQTKEERSKADLSKESCKMFIGGLNWDTTEDNLREYFGKYGTVTDLKIMKDPATGRSRGFGFLSFEKPSSVDEVVKTQHILDGKVIDPKRAIPRDEQDKTGKIFVGGIGPDVRPKEFEEFFSQWGTIIDAQLMLDKDTGQSRGFGFVTYDSADAVDRVCQNKFIDFKDRKIEIKRAEPRHMQQKSSNNGGNNGGNNMNRRGGNFGNQGDFNQMYQNPMMGGYNPMMNPQAMTDYYQKMQEYYQQMQKQTGMDYTQMYQQQMQQMAMMMPGFAMPPNAMTLNQPQQDSNATQGSPAPSDSDNNKSNDVQTIGNTSNTDSGSPPLNLPNGPKGPSQYNDDHNSGYGYNRDRGDRDRNDRDRDYNHRSGGNHRRNGRGGRGGYNRRNNGAHPYNR [Y529A] |

Source: IntAct's records for PubMed 18532879
